What was measured:
[1] = molecular target: A/Beijing/95(H1N1) (Influenza A virus A/Beijing/95 (H1N1)); assay: lateral-flow sandwich, A line: 7304 striped + M4090913-Eu
[2] = molecular target: A/Taiwan/1/86 (H1N1) (Influenza A virus A/Taiwan/1/86 (H1N1)); assay: as above
[3] = molecular target: B/Shanghai/2002 (Influenza B virus B/Shanghai/2002); assay: as above
[4] = molecular target: Bar-headed GS/QH/15/2005 (H5N1) (Influenza A virus Bar-headed GS/QH/15/2005 (H5N1)); assay: as above
[5] = molecular target: DK/VNM/568/2005 (H5N1) (Influenza A virus DK/VNM/568/2005 (H5N1)); assay: as above
[6] = molecular target: A/Beijing/95(H1N1) (Influenza A virus A/Beijing/95 (H1N1)); assay: lateral-flow sandwich, B line: M2110171 striped + 2/3-Eu
[7] = molecular target: A/Taiwan/1/86 (H1N1) (Influenza A virus A/Taiwan/1/86 (H1N1)); assay: as above
[8] = molecular target: B/Shanghai/2002 (Influenza B virus B/Shanghai/2002); assay: as above
[9] = molecular target: Bar-headed GS/QH/15/2005 (H5N1) (Influenza A virus Bar-headed GS/QH/15/2005 (H5N1)); assay: as above
[10] = molecular target: DK/VNM/568/2005 (H5N1) (Influenza A virus DK/VNM/568/2005 (H5N1)); assay: as above
[11] = molecular target: H5N1 virus strain A1; assay: cell-based or functional assay
[12] = molecular target: H5N1 virus strain A2; assay: cell-based or functional assay
[13] = molecular target: H5N1 virus strain A3; assay: cell-based or functional assay
[14] = molecular target: H5N1 virus strain A5; assay: cell-based or functional assay
[15] = molecular target: H5N1 virus strain A6; assay: cell-based or functional assay
[16] = molecular target: H5N1 virus strain A7; assay: cell-based or functional assay
[17] = molecular target: H5N1 virus strain A8; assay: cell-based or functional assay
[18] = molecular target: H5N1 virus strain B1; assay: cell-based or functional assay
[19] = molecular target: H5N1 virus strain B2; assay: cell-based or functional assay
[20] = molecular target: H5N1 virus strain B3; assay: cell-based or functional assay
[21] = molecular target: H5N1 virus strain B4; assay: cell-based or functional assay
[22] = molecular target: H5N1 virus strain B5; assay: cell-based or functional assay
[23] = molecular target: H5N1 virus strain B6; assay: cell-based or functional assay
[24] = molecular target: H5N1 virus strain B7; assay: cell-based or functional assay
[25] = molecular target: H5N1 virus strain B8; assay: cell-based or functional assay
[26] = molecular target: H5N1 virus strain C2; assay: cell-based or functional assay
[27] = molecular target: H5N1 virus strain C3; assay: cell-based or functional assay
[28] = molecular target: H5N1 virus strain D1; assay: cell-based or functional assay
[29] = molecular target: H5N1 virus strain D2; assay: cell-based or functional assay
[30] = molecular target: H5N1 virus strain E1; assay: cell-based or functional assay
[31] = molecular target: H5N1 virus strain E2; assay: cell-based or functional assay
[32] = molecular target: H5N1 virus strain F2; assay: cell-based or functional assay
[33] = molecular target: H5N1 virus strain F3; assay: cell-based or functional assay
[34] = molecular target: H5N1 virus strain G1; assay: cell-based or functional assay
[35] = molecular target: H5N1 virus strain H1; assay: cell-based or functional assay
[36] = molecular target: H5N1 virus strain H2; assay: cell-based or functional assay
[37] = molecular target: Bar-headed GS/QH/15/2005 (H5N1) (Influenza A virus Bar-headed GS/QH/15/2005 (H5N1)); assay: cell-based or functional assay
[38] = molecular target: H5N1 virus CK/HK/213/03 (Influenza A virus CK/HK/213/03); assay: cell-based or functional assay
[39] = molecular target: H5N1 virus CK/IDN/2A/04 (Influenza A virus CK/IDN/2A/04); assay: cell-based or functional assay
[40] = molecular target: H5N1 virus CP Heron/HK/18/05 (Influenza A virus CP Heron/HK/18/05); assay: cell-based or functional assay
[41] = molecular target: H5N1 virus DK/IDN/MS/04 (Influenza A virus DK/IDN/MS/04); assay: cell-based or functional assay
[42] = molecular target: H5N1 virus Oriental Magpie Robin/HK/366/2006 (Influenza A virus Oriental Magpie Robin/HK/366/2006); assay: cell-based or functional assay

anti-Flu A Medix 7304 antibody was tested, and the Signal/noise of test line [1] was 896, the Signal/noise of test line [2] was 493 and the Signal/noise of test line [3] was 3.9. For the same molecule, the Signal/noise of test line [4] was 246 and the Signal/noise of test line [5] was 607.

For “Anti-Flu B nucleoprotein M2110171 (Fitzgerald) (antibody)”, the Signal/noise of test line [6] was 0.5, the Signal/noise of test line [7] was 0.4 and the Signal/noise of test line [8] was 376. It also gave a Signal/noise of test line [9] of 0.6 and a Signal/noise of test line [10] of 1.

B1: 8H5 single chain antibody (scFv, V domains shown)
VH: QVQLQQSGAELMKPGASVKISCKATGYTFSNYWIEWIKQRPGHGLEWIGEILPGSDRTNYNGKFKGKATFTADTSSNTAHMQLSSLTSEDSAVYYCANRYDGYYFGLDYWGQGTSVAVSS
VL: EIVLTQSPAIMSASLGEKVTMSCRASSSVNFVYWYQQRSDASPKLLIYYSSNLAPGVPPRFSGSGSGNSYSLTISGLEGEDAATYYCQHFTSSPYTFGGGTNLEIKR
With B1 the HI titer n (titer = 2^n) (n-th power of 2) [11] was 3.5, the HI titer n (titer = 2^n) (n-th power of 2) [12] was 4.5 and the HI titer n (titer = 2^n) (n-th power of 2) [13] was 3.5. The HI titer n (titer = 2^n) (n-th power of 2) [14] was 4, the HI titer n (titer = 2^n) (n-th power of 2) [15] was 3 and the HI titer n (titer = 2^n) (n-th power of 2) [16] was 3. It also gave an HI titer n (titer = 2^n) (n-th power of 2) [17] of 2.5, an HI titer n (titer = 2^n) (n-th power of 2) [18] of 4 and an HI titer n (titer = 2^n) (n-th power of 2) [19] of 0. It also gave an HI titer n (titer = 2^n) (n-th power of 2) [20] of 5, an HI titer n (titer = 2^n) (n-th power of 2) [21] of 5 and an HI titer n (titer = 2^n) (n-th power of 2) [22] of 0. The HI titer n (titer = 2^n) (n-th power of 2) [23] was 3.5, the HI titer n (titer = 2^n) (n-th power of 2) [24] was 4 and the HI titer n (titer = 2^n) (n-th power of 2) [25] was 3. It also gave an HI titer n (titer = 2^n) (n-th power of 2) [26] of 1, an HI titer n (titer = 2^n) (n-th power of 2) [27] of 0 and an HI titer n (titer = 2^n) (n-th power of 2) [28] of 2.5. It also gave an HI titer n (titer = 2^n) (n-th power of 2) [29] of 2, an HI titer n (titer = 2^n) (n-th power of 2) [30] of 0 and an HI titer n (titer = 2^n) (n-th power of 2) [31] of 0. The HI titer n (titer = 2^n) (n-th power of 2) [32] was 0, the HI titer n (titer = 2^n) (n-th power of 2) [33] was 0 and the HI titer n (titer = 2^n) (n-th power of 2) [34] was 0. For the same molecule, the HI titer n (titer = 2^n) (n-th power of 2) [35] was 0 and the HI titer n (titer = 2^n) (n-th power of 2) [36] was 0.

B2: 4D1 single chain antibody (scFv)
scFv: QVQLQQPGAELVKPGASVNLSCKASGYTFTSYWMHWVKQRPGQGLEWIGEIDPSDSFTTYNQNFKDRATLTVDKSSSTAYMQLRSLTSEDSAVYYCARGGPGDFRYAMDYWGQGTSVTVSSGGGGSDILMTQSPSSMSVSLGDTVSITCHASQGISSNIGWLQQKPGKSFKGLIYHGTNLEDGVPSRFSGSGSGADYSLTISSLESEDFADYYCVQYVQFPYTFGGGTKLEIKRA
Work on B2 yielded an HI titer n (titer = 2^n) (n-th power of 2) [11] greater than 8, an HI titer n (titer = 2^n) (n-th power of 2) [12] greater than 8 and an HI titer n (titer = 2^n) (n-th power of 2) [13] greater than 8. The HI titer n (titer = 2^n) (n-th power of 2) [14] was greater than 8, the HI titer n (titer = 2^n) (n-th power of 2) [15] was 7 and the HI titer n (titer = 2^n) (n-th power of 2) [16] was 6. For the same molecule, the HI titer n (titer = 2^n) (n-th power of 2) [17] was greater than 8, the HI titer n (titer = 2^n) (n-th power of 2) [18] was greater than 8 and the HI titer n (titer = 2^n) (n-th power of 2) [19] was 0. For the same molecule, the HI titer n (titer = 2^n) (n-th power of 2) [20] was greater than 8, the HI titer n (titer = 2^n) (n-th power of 2) [21] was greater than 8 and the HI titer n (titer = 2^n) (n-th power of 2) [22] was 0. The HI titer n (titer = 2^n) (n-th power of 2) [23] was greater than 8, the HI titer n (titer = 2^n) (n-th power of 2) [24] was greater than 8 and the HI titer n (titer = 2^n) (n-th power of 2) [25] was greater than 8. The HI titer n (titer = 2^n) (n-th power of 2) [26] was greater than 8, the HI titer n (titer = 2^n) (n-th power of 2) [27] was greater than 8 and the HI titer n (titer = 2^n) (n-th power of 2) [28] was greater than 8. The HI titer n (titer = 2^n) (n-th power of 2) [29] was 7.5, the HI titer n (titer = 2^n) (n-th power of 2) [30] was 1 and the HI titer n (titer = 2^n) (n-th power of 2) [31] was 1. It also gave an HI titer n (titer = 2^n) (n-th power of 2) [32] of 5, an HI titer n (titer = 2^n) (n-th power of 2) [33] of 3 and an HI titer n (titer = 2^n) (n-th power of 2) [34] of 3.5. For the same molecule, the HI titer n (titer = 2^n) (n-th power of 2) [35] was 6 and the HI titer n (titer = 2^n) (n-th power of 2) [36] was 4.

B3: 10F7 single chain antibody (scFv)
scFv: QVQLQQPGAELVKPGASVKLSCKASGYTFTSYWMHWVKQRPGQGLEWIGEIDPSDSYTNYNQKFKGKATLTVDKSSSTAYMQLSSLTSEDSAVYYCARGGTGDFHYAMDYWGQGTSVTVSSGGGGSDILMTQSPSSMSVSLGDTVSITCHASQGISSNIGWLQQKPGKSFKGLIYHGTNLEDGVPSRFSGSGSGADYSLTISSLESEDFADYYCVQYVQFPYTFGGGTKLEIKR
B3 gave a neutralization: dilution of 10F7 scFv (fold dilution) [37] of 16, a neutralization: dilution of 10F7 scFv (fold dilution) [38] of less than 1 and a neutralization: dilution of 10F7 scFv (fold dilution) [39] of 32. It also gave a neutralization: dilution of 10F7 scFv (fold dilution) [40] of 8, a neutralization: dilution of 10F7 scFv (fold dilution) [41] of 16 and a neutralization: dilution of 10F7 scFv (fold dilution) [42] of less than 1. For the same molecule, the HI titer n (titer = 2^n) (n-th power of 2) [11] was greater than 8, the HI titer n (titer = 2^n) (n-th power of 2) [12] was greater than 8 and the HI titer n (titer = 2^n) (n-th power of 2) [13] was greater than 8. It also gave an HI titer n (titer = 2^n) (n-th power of 2) [14] greater than 8, an HI titer n (titer = 2^n) (n-th power of 2) [15] of 7.5 and an HI titer n (titer = 2^n) (n-th power of 2) [16] of 6.5. The HI titer n (titer = 2^n) (n-th power of 2) [17] was 6, the HI titer n (titer = 2^n) (n-th power of 2) [18] was 7 and the HI titer n (titer = 2^n) (n-th power of 2) [19] was 0. For the same molecule, the HI titer n (titer = 2^n) (n-th power of 2) [20] was greater than 8, the HI titer n (titer = 2^n) (n-th power of 2) [21] was greater than 8 and the HI titer n (titer = 2^n) (n-th power of 2) [22] was 0. The HI titer n (titer = 2^n) (n-th power of 2) [23] was 7, the HI titer n (titer = 2^n) (n-th power of 2) [24] was 7 and the HI titer n (titer = 2^n) (n-th power of 2) [25] was 7. The HI titer n (titer = 2^n) (n-th power of 2) [26] was 2, the HI titer n (titer = 2^n) (n-th power of 2) [27] was 1 and the HI titer n (titer = 2^n) (n-th power of 2) [28] was 2.5. The HI titer n (titer = 2^n) (n-th power of 2) [29] was 2.5, the HI titer n (titer = 2^n) (n-th power of 2) [30] was 0 and the HI titer n (titer = 2^n) (n-th power of 2) [31] was 0. For the same molecule, the HI titer n (titer = 2^n) (n-th power of 2) [32] was 0, the HI titer n (titer = 2^n) (n-th power of 2) [33] was 0 and the HI titer n (titer = 2^n) (n-th power of 2) [34] was 0. The HI titer n (titer = 2^n) (n-th power of 2) [35] was less than 1 and the HI titer n (titer = 2^n) (n-th power of 2) [36] was 0.
